The labels stand for the following.
B1: TPR t1 (parent)
chain: GACCAAUCUGCCCUCAGAGCUCGAGAACAUCUUCGGAUGCAGAGGAGGCAGGCUUCGGUGGCGCGAUAGCGCCAACGUCCUCAACCUCCAAUGCAUCCCACCACAUGAUGAUGCCUGAAGAGCCUUGGUUUUUUG

In the data set the parent is B1. Briefly: polymerase ribozyme fitness, log enrichment relative to wild type (log ratio); higher = more active; in vitro selection for triplet polymerase activity. Summed up: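 Streptavidin-bead capture of gel-excised extended constructs, followed by RT-PCR, closed a single triplicate in vitro selection round. That round began by annealing PCR-built, transcribed mutant libraries of each subunit of a heterodimeric triplet polymerase ribozyme with a biotinylated primer, the partner subunit and triplets, then incubating them frozen at −7 °C. After Illumina sequencing of inputs and outputs, genotypes needed ≥10 input reads and ≥1 read per output. Fitness is the base-2 logarithm of genotype enrichment over wild-type enrichment, using inverse-variance-weighted replicate averages.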
As for C11A C40U G45A G61A U96G C124A, the “polymerase ribozyme fitness (log ratio)” value is 0.365. The figure for C11U C89G is -1.89; for C11U A29U A91U G107C C114U it is -5.83; for C11G U78G C98U it is -0.594.

On to C11A A46U C53A C72A, for which the “polymerase ribozyme fitness (log ratio)” value is -2.19. The value for C11U C88U C104A A121G was 0.139. As to C11A G93C C102A, the “polymerase ribozyme fitness (log ratio)” value is -3.43. The figure for C11G G71C is -0.604; for C11G G71A it is -0.503. The figure for C11G U21G C53A U55C A68G is -5; for C11G U21A A24U G60U C94G G120A it is -7.06.

Consider C11A G48C G71A U87G U106G A121U, for which the “polymerase ribozyme fitness (log ratio)” value is -2.38.

As to C11G G48C G110A, the “polymerase ribozyme fitness (log ratio)” value is -1.89. Take C11A C79U: the “polymerase ribozyme fitness (log ratio)” value was -1.59.

As for C11A G52A G110U G135U, the “polymerase ribozyme fitness (log ratio)” value is -5.37. C11G A37C A41C C101A A121C G122U: the “polymerase ribozyme fitness (log ratio)” value is -1.01. The figure for C11G C15A U106A G117U G127U is -0.216; for C11G C31U U55C A90G it is -4.94. The figure for C11G G44C C72G C88U C101U is -0.537.

Consider C11G U32C, for which the “polymerase ribozyme fitness (log ratio)” value is -0.0143. In the case of C11A C34G G45A C53U C70G C101A U106A G117C, the “polymerase ribozyme fitness (log ratio)” value is -7.32. The figure for C11G A111G G120C G127U is 0.661; for C11G C104A it is -1.42.

In the case of C11G A37U C70A A83C A121C, the “polymerase ribozyme fitness (log ratio)” value amounted to 0.293. The figure for G10U G45A U106A is -0.0856; for C11G G36U G63A C98G it is -6.37. The figure for C11G A24G A37C G42A U92C A118U is -3.62.

For C11A G36C, the “polymerase ribozyme fitness (log ratio)” value was -2.32. The figure for G10U C56U U116A is -3.65. The value for G10U G25U C34A C99U G113C was -6.47; that for G10U G48C was -0.778; that for C11G G36C G77A was -0.0394.

As to C11G C70G G77U A103C A121C U132A, the “polymerase ribozyme fitness (log ratio)” value is -5.85. The value for C11G A16G G60A C88U C124A was -0.731; that for C11G C49A G61A was 1.07; that for C11A G42U G61U C114G U130A U132G was -4.29. The value for C11A G58C C72U G122A U125A was -2.52; that for C11A G71A A91G A121U was 0.674. The figure for C11G G39A C49G C53U G69A G120C is -2.46; for C11G A27G G39U G107U A121G U125G it is -6.41. Turning to C11U A41U G69U A74G G117A U125A U130A U131A, the “polymerase ribozyme fitness (log ratio)” value was -6.86. In the case of C11A C13G C62G, the “polymerase ribozyme fitness (log ratio)” value was -3.87. The value for C11U C40G C64U was -1.72; that for C11G G48A was -0.377; that for C11G G48U was -1.46. The value for C11A A29U G36A C124U was -4.08; that for G10U G60U was -0.931. The figure for C11G C31U G52A U96G G120C is -5.5; for C11U A18G it is -3.57; for C11G C82U G117A it is -0.654. As for C11A G39U C86U C104U G110A, the “polymerase ribozyme fitness (log ratio)” value was -2.77. For C11A C49A C53U A90U U126C, the “polymerase ribozyme fitness (log ratio)” value was -4.54. The figure for C11U C15U G45U C64U U78A C80U C82U A111U is -8.07; for C11A C85U U133G it is -2.41.

For C11A C40U G48C C79U C102U, the “polymerase ribozyme fitness (log ratio)” value is -5.15. The figure for C11G G77C is -0.624. The value for C11G G120C G135C was 2.47; that for G10U G17C G45U G93U C123G was -4.78. The value for C11A U81C A90G was -2.45; that for C11G C22G G36A C70U A83C was -5.41; that for C11G A24G C49G U59G was -2.66. In the case of G10U G23U A26G G63A C114G, the “polymerase ribozyme fitness (log ratio)” value is -5.43. The figure for C11A A27G A41U C49G G61U G120A is -3.04; for G10U U14A C53G A95U G120U it is 0.647; for C11U C79G U92G it is -6.09.

Consider C11G G17A C124U, for which the “polymerase ribozyme fitness (log ratio)” value is -3.84. The value for C11G A105U was -2.2; that for C11A G52A C70U A90G was -2.22. The value for C11U C85U was -1.93. The figure for C11G C64U C114G C115A C123G C124A is -4.26; for G10U C101A it is -1.56; for C11G G61A A90U U109G G117A it is -6.12.

On to C11G G35C G45U G71A U81A U112A U125A, for which the “polymerase ribozyme fitness (log ratio)” value is -6.05. For C11U A29U C53U C72A C123A, the “polymerase ribozyme fitness (log ratio)” value was -0.568. The figure for G10U C62U C88U C89G A121G U132C is 0.563. The value for C11G G39A C53G was -0.759. Regarding G10U G42U G69U C115A, the “polymerase ribozyme fitness (log ratio)” value is -1.2. Consider C11A A46U G93A, for which the “polymerase ribozyme fitness (log ratio)” value is -3.04. The figure for C11G G42A C72A C88U is -1.46; for C11G C124G it is 1.42; for C11U C13A C89U it is -2.3. The figure for C11U A18U C34U C64G C79U C123A is -5.92. The figure for C11A A66U G71A A121C U130A is -1.61; for G10U C114U it is -2.39; for C11G C79U it is -0.0995. As for C11G G36U C56G C82U, the “polymerase ribozyme fitness (log ratio)” value is -0.948. The value for C11U C49G U92A C123G was -3.91; that for G10U G52U U96G was -0.544; that for C11U A18G C72A was -3.7. The value for C11A C15A A37G C40A G120U was -6.11. The figure for C11G G42U U59A G60U is -1.24; for C11G G35A A84U it is -4.58.

Regarding C11G C72G, the “polymerase ribozyme fitness (log ratio)” value is -0.147. C11A C62U: the “polymerase ribozyme fitness (log ratio)” value was -1.47. In the case of C11A C62A, the “polymerase ribozyme fitness (log ratio)” value was -2.86. The value for C11A C62G was -2.04. Regarding G10U U30C A37G C56U C73U, the “polymerase ribozyme fitness (log ratio)” value is -4.17. The figure for C11A G107C G113A C124A is -6.29; for C11U C22G C40U G69A it is -5.5. Regarding C11G C12U A50G G71A U133G, the “polymerase ribozyme fitness (log ratio)” value is -4.01. The figure for C11A C40G is -3.12; for G10U U92G C94U U133A it is -2.28.

Take C11U C13G C56U G93C C114U A119G: the “polymerase ribozyme fitness (log ratio)” value is -3.78.

For C11G C15U G45C, the “polymerase ribozyme fitness (log ratio)” value is -1.34. The value for G10U U21G A46U was -3.02; that for C11A A84U U92C C98U was -4.14.

On to C11A C13G C20U C53U C64U U78G, for which the “polymerase ribozyme fitness (log ratio)” value was -3.27. For C11G A26C G77U U81A C97U G113A, the “polymerase ribozyme fitness (log ratio)” value was -6.37. Turning to C11A C13U G19A C56G C72U, the “polymerase ribozyme fitness (log ratio)” value is -4.6.

For the variant C11G C15U C56U A83U, the “polymerase ribozyme fitness (log ratio)” value is -1.12. The figure for C11A G120U is 0.0217; for C11G G57U U67G G120A it is -6.74; for C11A A18U C49A C123G it is -2.08. The figure for C11U C49U G63A U109A G117C A119U is -7.12.

With C11U A43U C70U C98U G122U, the “polymerase ribozyme fitness (log ratio)” value is -4.47. For C11G C13G C56U G93A, the “polymerase ribozyme fitness (log ratio)” value is -0.689.

Take C11A U81A: the “polymerase ribozyme fitness (log ratio)” value was -2.74. The figure for C11U C70U is -0.753; for C11U C70G it is -2.97; for C11A U38G C56U C86G U112C it is -2.57. The value for C11A A111C U131A was -2.03. The figure for C11A A41U G71U C72U A100U A103G C115A is -6.78. Regarding C11G C73G C85A A111G, the “polymerase ribozyme fitness (log ratio)” value was -1.47. As for C11G C64A, the “polymerase ribozyme fitness (log ratio)” value was -5.88. In the case of G10U U38G A41G, the “polymerase ribozyme fitness (log ratio)” value is -1.27. The figure for C11G C22A A26C C102A is -5.19. The value for C11U C73G C124U was 0.969. The value for C11G G17A was -3.46; that for C11A C12A C22A C40U A46U U78C C114A was -6.96; that for C11G G44C G77A C80A U130A U131A was -4.18.

As for C11U A27G C76G C80A C85A U112G, the “polymerase ribozyme fitness (log ratio)” value is -0.749. The value for C11U C53G A91U was -1.86. Consider G10U G47U A74G G113U C123G U126A, for which the “polymerase ribozyme fitness (log ratio)” value is -3.52.

Consider C11U A100C G110A, for which the “polymerase ribozyme fitness (log ratio)” value was -2.68.

For C11G A27G, the “polymerase ribozyme fitness (log ratio)” value is -1.52. The value for C11G G65C was -5.03; that for C11U C20A G57A C62U U87A was -4.19; that for C11U A50U G61C C76A A111C was -6.51. The value for C11G C64U A74U C123U was 0.798; that for C11G C56U was 0.107. The figure for C11G A18U A46U G57A is -4.09.

Consider C11A A37U G63C U116G, for which the “polymerase ribozyme fitness (log ratio)” value is -5.29. The figure for C11G C53U C82U is 0.05; for C11A C12U C40A C56U C89A G122U it is -2.66; for C11G A74U A108G it is -2.79. The value for C11A A37G U81G was -5.66; that for C11U C104G was -6.74; that for C11U C104A was -2.66.

As to G10U U21G C64A A95G C123U U125A, the “polymerase ribozyme fitness (log ratio)” value is -6.83.

Take G10U G35A G117C: the “polymerase ribozyme fitness (log ratio)” value was -6.56. With C11G A119G, the “polymerase ribozyme fitness (log ratio)” value turned out to be 0.484. The value for C11A G69U G120A U132A was 2; that for C11G G69U was 0.709.

For C11G C99U, the “polymerase ribozyme fitness (log ratio)” value was -2.71. On to C11A G19C G57U, for which the “polymerase ribozyme fitness (log ratio)” value was -5.03.

As to C11G A29G C72G C123A, the “polymerase ribozyme fitness (log ratio)” value is -0.598.

As for C11U A46C G51U C86G C102A, the “polymerase ribozyme fitness (log ratio)” value is -8.49.

For C11G G36A C73U, the “polymerase ribozyme fitness (log ratio)” value is -0.782.

Regarding C11G G93U C123U, the “polymerase ribozyme fitness (log ratio)” value worked out at 0.981. Take C11A U38C: the “polymerase ribozyme fitness (log ratio)” value is -2.34. The value for C11A C56U G69A C76A C79A C124A was -7.17; that for C11A C70U was -2.4; that for C11A C70G was -3.13. The value for C11G G35U C82A A105C C123A C124A was -5.28; that for C11U C13A U78A was -0.472; that for C11G C15U C20U C70G was -3.71. The value for C11U A43C G69C G77U U112G U134G was -5.15.

Source of the values: the RNAGym collection of RNA variant scans (doi:10.1073/pnas.2313332121).
